The target of assay [1] is T1, human TROP2 protein (Sino Biological, #10428-H08H) (human, UniProt P09758 27-274).
T1 construct: bought protein; also called human Trop2 protein antigen (His tag); not shown: His tag
T1 sequence (looked up): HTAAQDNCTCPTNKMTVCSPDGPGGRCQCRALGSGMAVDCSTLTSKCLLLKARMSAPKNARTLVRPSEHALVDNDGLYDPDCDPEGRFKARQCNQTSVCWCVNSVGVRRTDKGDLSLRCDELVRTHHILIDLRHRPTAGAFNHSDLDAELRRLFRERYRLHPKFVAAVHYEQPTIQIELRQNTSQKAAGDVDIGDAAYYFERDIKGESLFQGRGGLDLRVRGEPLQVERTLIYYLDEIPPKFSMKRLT
Briefly: BLI, Octet RED96, AHC sensor. How it is done: (§1) Specifically, a human TROP2 protein (Sino Biological, #10428-H08H) or a monkey Trop2 protein (Sino Biological, #90893-C08H) was diluted to 200 nM with a PBS buffer (pH 7.4) containing 0.1% (w/w) BSA and 0.02% (v/v) tween 20, and incubated with the AHC sensor respectively. 40 nM Trop2 antibody was incubated at 30° C. for 3 min with the AHC sensor loaded with the human Trop2 protein or monkey Trop2 protein respectively. The reaction mixture was incubated at 30° C. for another 5 min in a PBS buffer (pH 7.4) containing 0.1% (v/w) BSA and 0.02% (v/v) Tween 20. The association and dissociation signals between the Trop2 antibody and the human Trop2 protein or monkey Trop2 protein were recorded by Octet Red 96 in real time. The affinity and the association and dissociation constants were determined by Octet using software.
Background: Biolayer interferometry detects binding as a change in optical thickness at a sensor tip.

The target of assay [2] is T2, monkey Trop2 protein (Sino Biological, #90893-C08H) (monkey, UniProt A0A2K5UE71 27-274).
T2 construct: bought protein; also called monkey Trop2 protein antigen (His tag)
T2 sequence: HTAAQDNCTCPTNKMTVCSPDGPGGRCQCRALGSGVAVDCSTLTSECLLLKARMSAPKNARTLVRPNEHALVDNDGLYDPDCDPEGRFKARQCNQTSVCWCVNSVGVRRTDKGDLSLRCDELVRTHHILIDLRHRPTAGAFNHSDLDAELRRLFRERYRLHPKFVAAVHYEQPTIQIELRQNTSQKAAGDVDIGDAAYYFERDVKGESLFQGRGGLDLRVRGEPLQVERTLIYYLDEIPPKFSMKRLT
Kind of assay: BLI, Octet RED96, AHC sensor. As for the experimental part:
as §1

The next assay addresses T3, human Trop2 on cells (human, UniProt P09758 27-323).
T3 construct: whole, on cells; also called hTrop2; 293T-human Trop2 cells
T3 sequence (looked up): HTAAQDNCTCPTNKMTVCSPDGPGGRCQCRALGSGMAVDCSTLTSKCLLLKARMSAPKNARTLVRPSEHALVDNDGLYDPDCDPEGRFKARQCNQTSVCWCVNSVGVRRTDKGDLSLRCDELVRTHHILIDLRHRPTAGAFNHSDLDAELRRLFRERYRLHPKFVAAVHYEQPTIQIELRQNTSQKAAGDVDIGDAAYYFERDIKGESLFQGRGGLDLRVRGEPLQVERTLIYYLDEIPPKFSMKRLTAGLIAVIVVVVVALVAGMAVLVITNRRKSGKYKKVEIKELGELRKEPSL
Kind of assay: flow cytometry on 293T-human Trop2 cells. How it is done: The cell density was determined, and the cells were resuspended to 1×10⁶ cells/mL in PBS. 100 μL of cell suspension was taken from each well and added to a 96 well V-bottom plate. The 96-well V-bottom plate was centrifuged at 1000 rpm for 5 min and washed once with PBS+0.5% BSA (VWR, #0332-100G). […] After 1 h, the cells were washed twice with PBS+0.5% BSA. The cells were incubated with 100 μL of Alexa Fluor 488 goat anti-human IgG (Life technologies, 1:1000, #A-11013) at 4° C. for 1 h in the dark, and washed twice with PBS+0.5% BSA. The cells were resuspended in 200 μL of PBS+0.5% BSA. The fluorescence intensity of the cells was analyzed using a FACS verse flow cytometer. All procedures were performed on ice.

The target of assay [3] is T2, monkey Trop2 protein (Sino Biological, …). Briefly: BLI, Octet RED96; ratio against KD for human Trop2 protein. How it is done:
as §1

B1: PR001154 (antibody, human IgG1, kappa, V domains shown)
VH: QVQLVESGGGVVQPGRSLRLSCEASGFTFSHYGMHWVRQAPGKGLEWVAVIWYDGIKKYYIESVKGRFIISRDNSKNTLYLQMNRLRAEDTAVYYCARDGGFGELNYYGLDVWGQGTTVTVSS
VL: DIQLTQSPSFLSASVGDRVTITCRASQGISSYLGWYQQKPGKAPKLLIYVASTLQSGVPSRFSGSGSGTEFTLTISSLQPEDFATYYCQQLNSYPYTFGQGTKLEIKR
notes: fully human IgG1/kappa; also called antibody No. (17)
In assay [1], B1 showed a dissociation constant Kd of 0.855 nM, a Response of 0.41, a koff of 9.23e-05 s⁻¹ and a kon of 108000 M⁻¹ s⁻¹. Moreover, in assay [2], binding was put at a Kd of 1.91 nM, the Response amounted to 0.379, the koff is 0.000139 s⁻¹ and the kon came to 72700 M⁻¹ s⁻¹. Further, in the assay with human Trop2 on cells, a half-maximal response (EC50) required 2.11 nM, the “Maximum (MFI)” value was 7470 MFI and the Top % was 115%. For the same molecule, the “KD (monkey)/KD (human)” value in assay [3] is 2.24.

B2: PR001155 (antibody, human IgG1, kappa, V domains shown)
VH: QVQLVQSGGGVVQPGRSLRLSCAASGFTFSHYGMHWVRQAPGKGLEWVAVIWYDGIKKYYVESVKGRFTISRDNSKNTLYLQMNRLRAEDTAVYYCARDGGFGELNYYGLDVWGQGTTVTVSS
VL: DIQLTQSPSFLSASVGDRVTITCRASQGISSYLGWYQQKPGKAPKLLIYVASTLQSGVPSRFSGSGSGTEFTLTISSLQPEDFATYYCQQLNSYPYTFGQGTKLEIKR
notes: fully human IgG1/kappa; also called antibody No. (18)
As to B2, in assay [1], the Kd was determined as 1.84 nM, the Response worked out at 0.406, the koff amounted to 0.000144 s⁻¹ and the association rate constant (kon) was determined as 78100 M⁻¹ s⁻¹. In assay [2], the Kd came to 4.26 nM, the Response was 0.356, the koff was determined as 0.000219 s⁻¹ and the kon came out at 51500 M⁻¹ s⁻¹. For the same molecule, in the assay with human Trop2 on cells, the half-maximal effective concentration (EC50) turned out to be 2.54 nM, the “Maximum (MFI)” value is 7320 MFI and the Top % worked out at 113%. The “KD (monkey)/KD (human)” value in assay [3] amounted to 2.32.

B3: PR001156 (antibody, human IgG1, kappa, V domains shown)
VH: QVQLVESGGGVVQPGRSLRLSCEGSGFTFSHYGMHWVRQAPGKGLEWVAVIWYDGIKKNYVDSLKGRFTISRDNSKNTLYLQMNSLRAEDTAVYYCARDGGFGELNYYGMDVWGQGTTVTVSS
VL: DIQLTQSPSFLSASVGDRVTITCRASQGISSYLGWYQQKPGKAPKLLIYIASTLQSGVPSRFSGSGSGTEFTLTISSLQPEDFATYYCQQLNSYPYTFGQGTKLEIKR
notes: fully human IgG1/kappa; also called antibody No. (19)
In assay [1], B3 had a Kd of 0.0916 nM, a Response of 0.354, a dissociation rate constant (koff) of 1.67e-05 s⁻¹ and a kon of 183000 M⁻¹ s⁻¹. For the same molecule, in assay [2], the Kd turned out to be 0.536 nM, the Response was 0.349, the koff was determined as 6.15e-05 s⁻¹ and the kon is 115000 M⁻¹ s⁻¹. Moreover, in the assay with human Trop2 on cells, the EC50 came out at 1.67 nM, the “Maximum (MFI)” value amounted to 7270 MFI and the Top % turned out to be 112%. Besides, the “KD (monkey)/KD (human)” value in assay [3] amounted to 5.85.

B4: PR001158 (antibody, human IgG1, kappa, V domains shown)
VH: QVQLVESGGGVVQPGRSLRLSCVASGFTFSHYGMHWVRQAPGKGLEWVAVIWYDGIKKYYVESVKGRFTISRDNSKNTLNLQMNRLRAEDTAVYYCARDGGFGESNYYGLDVWGQGTTVTVSS
VL: DIQLTQSPSFLSASVGDRVTITCRASQGISSYLGWYQQKPGKAPKLLIYIASTLQSGVPSRFSGSGSGTEFTLTISSLQPEDFATYYCQQLNSYPYTFGQGTKLEIKR
notes: fully human IgG1/kappa; also called antibody No. (20)
In the case of B4, in assay [1], the Kd is 0.155 nM, the Response worked out at 0.433, the off-rate constant (koff) was found to be 2.05e-05 s⁻¹ and the kon was found to be 132000 M⁻¹ s⁻¹. In assay [2], the Kd came out at 0.708 nM, the Response worked out at 0.406, the koff was 6.23e-05 s⁻¹ and the on-rate (kon) was 87900 M⁻¹ s⁻¹. In the assay with human Trop2 on cells, the response was half-maximal at 1.26 nM (EC50), the “Maximum (MFI)” value came to 6950 MFI and the Top % stood at 107%. For the same molecule, the “KD (monkey)/KD (human)” value in assay [3] amounted to 4.56.

Usually Kd stands for a measure of binding affinity in units of concentration. The term koff denotes the rate constant with which the complex falls apart. For orientation: kon means the second-order rate constant of association. By EC50 is commonly meant the concentration that produces a half-maximal response.

Values taken from patent US20240067748A1 (NONA BIOSCIENCES SUZHOU, published 2024).
